# Test results: US20170174733A1 (Genentech, published 2017)
# T1: LRP6 E1E2 with a C-terminal Avi-tag and His6-tag (human, UniProt O75581 20-630, biotinylated (Avi-tag) where loaded on streptavidin tips; unlabeled where in solution)
# T1 construct: domain: E1E2; also called LRP6 receptor fragment E1E2; biotinylated LRP6-E1E2; not shown: C-terminal Avi-tag and His6-tag
# T1 sequence: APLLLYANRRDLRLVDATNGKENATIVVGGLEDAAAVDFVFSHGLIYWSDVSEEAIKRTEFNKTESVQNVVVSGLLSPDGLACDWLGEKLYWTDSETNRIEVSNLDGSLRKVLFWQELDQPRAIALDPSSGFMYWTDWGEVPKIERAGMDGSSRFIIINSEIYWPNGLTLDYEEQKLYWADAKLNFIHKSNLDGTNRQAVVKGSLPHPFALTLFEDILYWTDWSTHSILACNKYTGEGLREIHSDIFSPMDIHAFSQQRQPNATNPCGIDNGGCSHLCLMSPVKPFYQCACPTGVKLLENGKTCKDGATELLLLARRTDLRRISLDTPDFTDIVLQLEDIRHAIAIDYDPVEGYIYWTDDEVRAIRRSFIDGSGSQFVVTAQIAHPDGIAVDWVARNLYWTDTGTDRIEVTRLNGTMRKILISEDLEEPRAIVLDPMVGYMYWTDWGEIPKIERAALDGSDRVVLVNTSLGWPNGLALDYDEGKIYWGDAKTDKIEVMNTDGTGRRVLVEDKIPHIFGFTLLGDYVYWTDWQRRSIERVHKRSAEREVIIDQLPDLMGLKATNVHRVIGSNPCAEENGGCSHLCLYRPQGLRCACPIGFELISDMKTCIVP
# T2: VEGF109 (UniProt P15692 214-315, biotinylated where loaded on streptavidin tips)
# T2 construct: range 8-109; also called VEGF8-109; biotinylated VEGF109
# T2 sequence: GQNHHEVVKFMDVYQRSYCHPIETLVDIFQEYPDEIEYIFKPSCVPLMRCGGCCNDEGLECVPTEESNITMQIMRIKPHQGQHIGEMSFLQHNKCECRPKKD
# T3: papain (UniProt P00784 134-345)
# T3 construct: Coated on ELISA plates
# T3 sequence: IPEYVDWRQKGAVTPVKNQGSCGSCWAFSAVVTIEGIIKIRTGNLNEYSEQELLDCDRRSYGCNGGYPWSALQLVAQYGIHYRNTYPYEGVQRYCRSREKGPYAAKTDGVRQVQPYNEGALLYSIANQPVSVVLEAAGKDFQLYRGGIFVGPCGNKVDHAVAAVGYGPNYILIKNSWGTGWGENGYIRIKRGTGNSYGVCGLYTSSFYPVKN
# B1: chagasin LRP6 variant H2 (designed binder)
# chain: MSHKVTKAHNGATLTVAVGELVEIQLPSNPQTGFAWYFEGGTKESPNESMFTVENKYFPSNKVKGVPGFGAGGTEHFHVTVKAAGTHAVNLTYMGPWTGASQEPERFTVYLKAN
# notes: also called clone H2
# B2: chagasin LRP6 variant H15 (designed binder)
# chain: MSHKVTKAHNGATLTVAVGELVEIQLPSNPTTGFAWYFEGGTKESPNESMFTVENKYFPSNKIKGIPGFGAGGTEHFHVTVKAAGTHAVNLTYMRPSTGPSDDSERFTVYLKAN
# notes: also called clone H15
# B3: chagasin LRP6 variant S11 (designed binder)
# chain: MSHKVTKAHNGATLTVAVGELVEIQLPSNVDGFAWYFEGGTKESPNESMFTVENKYFPSNSTKRGAGGTEHFHVTVKAAGTHAVNLTYMPRVKGAYLVMERFTVYLKAN
# notes: also called clone S11
# B4: chagasin LRP6 variant S15 (designed binder)
# chain: MSHKVTKAHNGATLTVAVGELVEIQLPSNADGFAWYFEGGTKESPNESMFTVENKYFPSNSTKRGAGGTEHFHVTVKAAGTHAVNLTYMRREKGSTLVVERFTVYLKAN
# modifications: biotinylated at the Avi-tag (BirA)
# notes: not shown: C-terminal His6-tag and Avi-tag (ExiProgen small-scale expression)
# B5: dimeric chagasin VEGF variant 37 (designed binder)
# chain: MSHKVTKAHNGATLTVAVGELVEIQLPSNYFCDGFAWYFEGGTKESPNESMFTVENKYFPNYPGSGVLGAGGTEHFHVTVKAAGTHAVNLTYMAPWFGPSRVLERFTVYLKAN
# notes: also called clone 37
# B6: phage-displayed gD-tagged wild-type chagasin fused to phage coat protein p3 (other)
# chain: MADPNRFRGKDLGSLEMSHKVTKAHNGATLTVAVGELVEIQLPSNPTTGFAWYFEGGTKESPNESMFTVENKYFPPDSKLLGAGGTEHFHVTVKAAGTHAVNLTYMRPWTGPSHDSERFTVYLKANGGSGGSGGS
# notes: also called chagasin wild-type (wt); p3-fusion display; not shown: phage coat protein g3 (p3)
# B7: phage-displayed gD-tagged wild-type chagasin fused to phage coat protein p8 (other)
# chain: MADPNRFRGKDLGSLEMSHKVTKAHNGATLTVAVGELVEIQLPSNPTTGFAWYFEGGTKESPNESMFTVENKYFPPDSKLLGAGGTEHFHVTVKAAGTHAVNLTYMRPWTGPSHDSERFTVYLKANGGSGGSGGS
# notes: also called chagasin wild-type (wt); p8-fusion display; not shown: phage coat protein g8 (p8)
# B8: chagasin LRP6 variant H (designed binder)
# chain: MSHKVTKAHNGATLTVAVGELVEIQLPSNPTTGFAWYFEGGTKESPNESMFTVENKYFPYNNIRGLPGFGAGGTEHFHVTVKAAGTHAVNLTYMRPWTGPSHDSERFTVYLKANSAWSHPQFEK
# B9: chagasin LRP6 variant P (designed binder)
# chain: MSHKVTKAHNGATLTVAVGELVEIQLPSNPSCGFAWYFEGGTKESPNESMFTVENKYFPDSNEIWYCGAGGTEHFHVTVKAAGTHAVNLTYMSPYYGPTKVEERFTVYLKANSAWSHPQFEK
# B10: chagasin LRP6 variant S (designed binder)
# chain: MSHKVTKAHNGATLTVAVGELVEIQLPSNPADGFAWYFEGGTKESPNESMFTVENKYFPSNYTKHGAGGTEHFHVTVKAAGTHAVNLTYMPREKGSSLVMERFTVYLKANSAWSHPQFEK
# Assays:
# [1] = molecular target: LRP6 on HEK293S cells (human, UniProt O75581 20-1613); assay: cell-based or functional assay
# [2] = molecular target: T1, LRP6 E1E2 with a C-terminal Avi-tag and …; assay: BLI (OctetRED384), monomeric variant
# [3] = molecular target: T1, LRP6 E1E2 with a C-terminal Avi-tag and …; assay: biolayer interferometry (OctetRED384), fitting view of five traces, LRP6-E1E2
# Method: Binding affinities of chagasin variants for the targets LRP6 and VEGF109 were measured using the OctetRED384 (ForteBio). All washes, dilutions and measurements were performed in PBS-based kinetics buffer (ForteBio) with the plate shaking at 1000 rpm. Streptavidin biosensors (SA tips, ForteBio) were equilibrated in kinetics buffer for 5 min and then loaded with either biotinylated LRP6-E1E2 or biotinylated VEGF109 (20 μg/ml) to a density of 2 nm signal difference, followed by a 3 min washing step. […] Dissociation of the chagasin variant-target complex was measured in wells containing kinetics buffer alone for up to 30 min. Sensorgrams with ligand-loaded SA tips going through wells containing only buffer in both association and dissociation measurement were used as reference for background subtraction. Kd, kₐ and kd were determined using the Octet evaluation software v7.0.1.3. using a 1:1 binding model with global fitting. Alternatively, AMC-biosensors (Fortebio) were loaded with StrepMAB-Immo (IBA GmbH) to saturation and subsequently used to capture Strep-tag II containing chagasin variants to saturation. After 5 min of washing in kinetics buffer, binding kinetics to unlabeled LRP6-E1E2 fragment was determined essentially as described above.
# [4] = molecular target: T1, LRP6 E1E2 with a C-terminal Avi-tag and …; assay: BLI on small-scale ExiProgen protein with C-terminal Avi-tag
# [5] = molecular target: T2, VEGF109; assay: phage spot ELISA on VEGF with the phage-displayed clone 37, as told by the legend and paragraph 367; the sheet draws sequences only, no signals
# [6] = molecular target: T3, papain; assay: phage ELISA on coated papain, 2-fold phage dilutions, anti-M13-HRP detection, OD 450 nm
# [7] = molecular target: BSA (UniProt P02769 25-607); assay: phage ELISA on BSA as control, 2-fold phage dilutions, anti-M13-HRP detection, OD 450 nm
# Sequence of BSA (P02769 25-607 limits assumed): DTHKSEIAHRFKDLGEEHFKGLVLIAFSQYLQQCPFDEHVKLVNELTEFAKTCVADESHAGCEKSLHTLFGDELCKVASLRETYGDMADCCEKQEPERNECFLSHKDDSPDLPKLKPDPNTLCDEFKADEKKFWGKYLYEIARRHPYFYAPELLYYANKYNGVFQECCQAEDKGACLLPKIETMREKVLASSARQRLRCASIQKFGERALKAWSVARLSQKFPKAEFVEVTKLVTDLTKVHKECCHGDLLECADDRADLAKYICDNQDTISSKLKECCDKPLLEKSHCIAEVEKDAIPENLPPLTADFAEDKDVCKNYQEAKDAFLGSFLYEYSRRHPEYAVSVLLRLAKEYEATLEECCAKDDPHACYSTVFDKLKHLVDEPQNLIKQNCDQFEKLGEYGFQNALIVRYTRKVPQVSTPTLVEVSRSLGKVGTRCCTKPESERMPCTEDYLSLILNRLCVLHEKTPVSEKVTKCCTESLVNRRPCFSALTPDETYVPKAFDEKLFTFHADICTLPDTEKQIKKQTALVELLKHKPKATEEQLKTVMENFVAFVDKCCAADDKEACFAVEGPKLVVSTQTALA
# [8] = molecular target: anti-gD antibody (Genentech, Inc.); assay: phage ELISA on coated anti-gD antibody, 2-fold phage dilutions, anti-M13-HRP detection, OD 450 nm
# [9] = molecular target: T1, LRP6 E1E2 with a C-terminal Avi-tag and …; assay: BLI (OctetRED384): Strep-tagged variant captured by StrepMAB-Immo on AMC tips, LRP6-E1E2 in solution
Binder,"IC50, inhibition of Wnt1 signaling (luciferase reporter, HEK293S cells transfected by WNT1) [1] [nM]",Kd [2] [nM],Kd [9] [nM],other results
B1,31,0.4,,Kd [3]: 0.39 nM
B2,26,0.25,,
B3,400,74,,
B4,,,,binding result [4]: binds
B5,,,,binding result [5]: binds
B6,,,,EC50 (read off the curve) [6]: ~0.04 OD 268 nM; binding result [7]: no binding (tested: 0.5 OD 268 nm); EC50 (read off the curve) [8]: ~0.01 OD 268 nM
B7,,,,EC50 (read off the curve) [6]: ~0.04 OD 268 nM; binding result [7]: no binding (tested: 0.5 OD 268 nm); EC50 (read off the curve) [8]: ~0.02 OD 268 nM
B8,,,6,
B9,,,150,
B10,,,70,
